The test system of this data set is T1, VPF-FRRG(SEQ ID NO: 1)-DOX self-assembled nanoparticles (LT-NPs).
T1 sequence: FRRG

For cathepsin B (Cat-B) protease, the “cleavage of LT-NPs after enzymatic reaction with cathepsin B (RP-HPLC at 0, 9 and 24 h; fluorescence spectrophotometry)” value was “the self-assembled nanoparticles (LT-NPs) were cleaved by cathepsin B to release doxorubicin and the photosensitizer”; the “morphology by transmission electron microscopy after 24 h reaction with cathepsin B (50 ug/mL)” value was “the self-assembled nanoparticles (LT-NPs) were degraded by cathepsin B present in cancer cells and existed in an activated state”.

Source of the values: patent US20220370611.
